Assays:
Assay in all cases: SPR (Biacore T100), antibody captured on protein A chip, receptor injected as analyte
[1] = molecular target: T1, FcγRIIIa-F158 (UniProt P08637 17-208, limits assumed)
T1 construct: also called FcγRIIIa-F158 allele

[2] = molecular target: T2, FcγRIIIa-V158 (UniProt P08637 17-208, limits assumed)
T2 construct: It names the V158 allele but states no substitution against an entry; also called FcγRIIIa-V158 allele

[3] = molecular target: T3, FcγRIIb (UniProt P31994 46-217, limits assumed)
T3 construct: also called FcγIIb receptor
T3 sequence (looked up): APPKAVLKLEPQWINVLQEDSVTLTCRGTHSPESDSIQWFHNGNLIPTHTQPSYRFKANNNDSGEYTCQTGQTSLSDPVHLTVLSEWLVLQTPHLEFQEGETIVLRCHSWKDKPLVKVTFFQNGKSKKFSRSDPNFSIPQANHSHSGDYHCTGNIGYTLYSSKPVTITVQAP

T2 sequence (P08637 17-208 F176V limits assumed): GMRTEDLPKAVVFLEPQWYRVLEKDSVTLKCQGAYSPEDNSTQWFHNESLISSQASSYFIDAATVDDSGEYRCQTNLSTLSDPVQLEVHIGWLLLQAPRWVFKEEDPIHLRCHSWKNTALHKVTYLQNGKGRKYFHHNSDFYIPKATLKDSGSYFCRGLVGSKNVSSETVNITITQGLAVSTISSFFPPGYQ
T1 sequence (P08637 17-208 limits assumed): as the sequence (P08637 17-208 F176V limits assumed) above, with V160F counted along it

B1: commercial rituximab (rituxan, Genentech Inc.) (antibody)
chain 1: not shown
chain 2: QIVLSQSPAILSASPGEKVTMTCRASSSVSYIHWFQQKPGSSPKPWIYATNLASGVPVRFSGSGSGTSYSLTISRVEAEDAATYYCQQWTSNPPTFGGGTKLEIKRTVAAPSVFIFPPSDEQLKSGTASVVCLLNNFYPREAKVQWKVDNALQSGNSQESVTEQDSKDSTYSLSSTLTLSKADYEKHKVYACEVTHQGLSSPVTKSFNRGEC
B1 showed a Kd [1] of 1040 nM, a Kd [2] of 252 nM and a Kd [3] of 2000 nM.
